By Kd is commonly meant the constant that tells how readily two partners part at equilibrium. The koff is the first-order rate constant of dissociation. A word on the kon: it is the second-order rate constant of association. A high value points to faster complex formation.

The labels stand for the following.
B1: E. coli ColE-7 (other)
chain: ESKRNKPGKATGKGKPVNNKWLNNAGKDLGSPVPDRIANKLRDKEFKSFDDFRKKFWEEVSKDPELSKQFSRNNNDRMKVGKAPKTRTQDVSGKRTSFELHHEKPISQNGGVYDMDNISVVTPKRHIDIHRGK
B2: E. coli IM-7, singly biotinylated (other)
chain: MELKNSISDYTEAEFVQLLKEIEKENVAATDDVLDVLLEHFVKITEHPDGTDLIYYPSDNRDDSPEGIVKEIKEWRAANGKPGFKQG

In assay [1] the target is GthIM (Geobacillus thermoglucosidasius immunity protein, C18A, engineered), singly biotinylated (Geobacillus thermoglucosidasius). Put plainly: SPR Biacore T200, 37 C, single cycle kinetics; biotinylated immunity protein on streptavidin sensor, colicin analyte 1.1-90 nM. On the technique in general: In SPR one partner is held on a chip, and binding of the other changes the refractive index at the surface.

For assay [2], the target named is B1. Put plainly: SPR Biacore T200, 37 C, single cycle kinetics.
In assay [3] the target is B1. Nature of the assay: SPR Biacore T200, 37 C, single cycle kinetics; biotinylated immunity protein on streptavidin sensor, colicin analyte 1.1-90 nM.

A value given as a limit tells only on which side of the number the result lay.

On to B1, for which, in assay [1], the affinity, expressed as Kd, was 13 nM; the koff was 0.1 s⁻¹; the kon came out at 1e+07 M⁻¹ s⁻¹.

Take B2: the “complex half-life t/2-diss” value with E. coli ColE-7 [2] was over 19.2 h. In the assay with E. coli ColE-7 [3], the dissociation constant (Kd) was under 0.0057 nM; the “MR (Molar Ratio, binding stoichiometry)” value worked out at 1.2; the dissociation rate constant (koff) is under 1e-05 s⁻¹; the kon turned out to be 1.8e+06 M⁻¹ s⁻¹.

For the origin of these results see patent US20240140995A1 (ROCHE DIAGNOSTICS OPERATIONS, published 2024).
